Results from patent US20110020218A1.

Molecular target: constitutively active mutant (CAM) Asn119Ser CXCR4 receptor (human) (UniProt P61073)
Assay: cell-based or functional assay

Chain of constitutively active mutant (CAM) Asn119Ser CXCR4 receptor (human) (P61073 whole entry N119S): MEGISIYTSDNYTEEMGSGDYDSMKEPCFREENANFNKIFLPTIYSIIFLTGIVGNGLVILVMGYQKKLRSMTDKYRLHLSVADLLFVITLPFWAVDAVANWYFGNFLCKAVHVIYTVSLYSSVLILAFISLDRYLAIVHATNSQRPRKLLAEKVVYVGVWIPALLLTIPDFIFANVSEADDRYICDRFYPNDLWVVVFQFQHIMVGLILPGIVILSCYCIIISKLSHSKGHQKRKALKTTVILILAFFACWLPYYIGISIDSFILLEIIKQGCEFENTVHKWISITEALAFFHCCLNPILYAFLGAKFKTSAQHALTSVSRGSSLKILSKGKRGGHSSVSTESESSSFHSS

Substance: T140 (peptide)
- inhibition of SDF-1-stimulated [35S]GTPγS binding: -159%
- inhibition of basal [35S]GTPγS binding: -17%
